In article PMC9352680, “A comprehensive thermodynamic model for RNA binding by the Saccharomyces cerevisiae Pumilio protein PUF4”:
Where a chain is given by its changes, count along the chain named. Names may count otherwise.

B1: Ic_S4_P4E.1_K4.1_C4.1_H4.1_A4.1_[T5A]_[T7C]_F4.1_[T8C]_[A9T]_T4.1 (ssRNA)
RNA: UUUGACAACUGAUCGUUCUUUCUUGUAAACCUUUCUUUCUCGAUCAGUUGUCUUU
B2: Ic_S4_P4E.1_K4.1_C4.1_H4.1_A4.1_[T5A]_[T7C]_F4.1_[T8A]_[A9T]_T4.1 (ssRNA)
RNA: B1 RNA with C31A
B3: Ic_S4_P4E.1_K4.1_C4.1_H4.1_A4.1_[T5A]_[T7C]_F4.1_[A9C]_T4.1 (ssRNA)
RNA: B1 RNA with C31U, U32C
B4: Ic_S4_P4E.1_K4.1_C4.1_H4.1_A4.1_[T5A]_[T7C]_F4.1_[A9T]_T4.1 (ssRNA)
RNA: B1 RNA with C31U
B5: Ic_S4_P4E.1_K4.1_C4.1_H4.1_A4.1_[T5A]_[T7A]_F4.1_[T8C]_[A9T]_T4.1 (ssRNA)
RNA: B1 RNA with C30A
B6: Ic_S4_P4E.1_K4.1_C4.1_H4.1_A4.1_[T5A]_[T7A]_F4.1_[T8A]_T4.1 (ssRNA)
RNA: B1 RNA with C30A, C31A, U32A
B7: Ic_S4_P4E.1_K4.1_C4.1_H4.1_A4.1_[T5A]_[T7A]_F4.1_[A9G]_T4.1 (ssRNA)
RNA: B1 RNA with C30A, C31U, U32G
B8: Ic_S4_P4E.1_K4.1_C4.1_H4.1_A4.1_[T5A]_[T7A]_F4.1_[A9T]_T4.1 (ssRNA)
RNA: B1 RNA with C30A, C31U
B9: Ic_S4_P4E.1_K4.1_C4.1_H4.1_A4.1_[T5A]_[T7A]_F4.1_T4.1 (ssRNA)
RNA: B1 RNA with C30A, C31U, U32A
B10: Ic_S4_P4E.1_K4.1_C4.1_H4.1_A4.1_[T5A]_F4.1_[T8A]_[A9G]_T4.1 (ssRNA)
RNA: B1 RNA with C30U, C31A, U32G
B11: Ic_S4_P4E.1_K4.1_C4.1_H4.1_A4.1_[A6G]_[T7G]_F4.1_[T8C]_[A9G]_T4.1 (ssRNA)
RNA: B1 RNA with A28U, A29G, C30G, U32G
B12: Ic_S4_P4E.1_K4.1_C4.1_H4.1_A4.1_[A6G]_[T7G]_F4.1_[T8C]_[A9C]_T4.1 (ssRNA)
RNA: B1 RNA with A28U, A29G, C30G, U32C
B13: Ic_S4_P4E.1_K4.1_C4.1_H4.1_A4.1_[A6G]_[T7G]_F4.1_[T8C]_[A9T]_T4.1 (ssRNA)
RNA: B1 RNA with A28U, A29G, C30G
B14: Ic_S4_P4E.1_K4.1_C4.1_H4.1_A4.1_[A6G]_[T7G]_F4.1_[A9T]_T4.1 (ssRNA)
RNA: B1 RNA with A28U, A29G, C30G, C31U
B15: Ic_S4_P4E.1_K4.1_C4.1_H4.1_A4.1_[A6G]_[T7C]_F4.1_[T8G]_[A9C]_T4.1 (ssRNA)
RNA: B1 RNA with A28U, A29G, C31G, U32C
B16: Ic_S4_P4E.1_K4.1_C4.1_H4.1_A4.1_[A6G]_[T7C]_F4.1_[T8G]_[A9T]_T4.1 (ssRNA)
RNA: B1 RNA with A28U, A29G, C31G
B17: Ic_S4_P4E.1_K4.1_C4.1_H4.1_A4.1_[A6G]_[T7C]_F4.1_[T8C]_[A9C]_T4.1 (ssRNA)
RNA: B1 RNA with A28U, A29G, U32C
B18: Ic_S4_P4E.1_K4.1_C4.1_H4.1_A4.1_[A6G]_[T7C]_F4.1_[T8C]_T4.1 (ssRNA)
RNA: B1 RNA with A28U, A29G, U32A
B19: Ic_S4_P4E.1_K4.1_C4.1_H4.1_A4.1_[A6G]_[T7C]_F4.1_[T8A]_[A9T]_T4.1 (ssRNA)
RNA: B1 RNA with A28U, A29G, C31A
B20: Ic_S4_P4E.1_K4.1_C4.1_H4.1_A4.1_[A6G]_[T7C]_F4.1_[T8A]_T4.1 (ssRNA)
RNA: B1 RNA with A28U, A29G, C31A, U32A
B21: Ic_S4_P4E.1_K4.1_C4.1_H4.1_A4.1_[A6G]_F4.1_[T8G]_[A9G]_T4.1 (ssRNA)
RNA: B1 RNA with A28U, A29G, C30U, C31G, U32G
B22: Ic_S4_P4E.1_K4.1_C4.1_H4.1_A4.1_[A6G]_F4.1_[T8C]_[A9C]_T4.1 (ssRNA)
RNA: B1 RNA with A28U, A29G, C30U, U32C
B23: Ic_S4_P4E.1_K4.1_C4.1_H4.1_A4.1_[A6G]_F4.1_[T8C]_[A9T]_T4.1 (ssRNA)
RNA: B1 RNA with A28U, A29G, C30U
B24: Ic_S4_P4E.1_K4.1_C4.1_H4.1_A4.1_[A6G]_F4.1_[T8A]_[A9G]_T4.1 (ssRNA)
RNA: B1 RNA with A28U, A29G, C30U, C31A, U32G
B25: Ic_S4_P4E.1_K4.1_C4.1_H4.1_A4.1_[A6G]_F4.1_[T8A]_[A9C]_T4.1 (ssRNA)
RNA: B1 RNA with A28U, A29G, C30U, C31A, U32C
B26: Ic_S4_P4E.1_K4.1_C4.1_H4.1_A4.1_[A6G]_F4.1_[T8A]_T4.1 (ssRNA)
RNA: B1 RNA with A28U, A29G, C30U, C31A, U32A

Biological target: T1, PUF4 RNA-binding domain (Saccharomyces cerevisiae, UniProt P25339 537-888)
T1 sequence: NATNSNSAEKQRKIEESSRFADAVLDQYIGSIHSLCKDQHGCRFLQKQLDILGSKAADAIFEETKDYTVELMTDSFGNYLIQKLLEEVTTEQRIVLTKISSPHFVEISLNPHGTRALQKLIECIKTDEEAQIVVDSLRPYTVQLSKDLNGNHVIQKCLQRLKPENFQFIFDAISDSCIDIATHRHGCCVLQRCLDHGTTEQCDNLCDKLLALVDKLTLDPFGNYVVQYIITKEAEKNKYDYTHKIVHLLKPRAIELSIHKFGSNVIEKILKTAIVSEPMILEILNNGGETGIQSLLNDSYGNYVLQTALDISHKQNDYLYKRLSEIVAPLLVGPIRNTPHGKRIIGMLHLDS
Experiment: Mg; RNA-MaP; 20 mM Na-HEPES pH 7.4, 30 mM KOAc, 0.75 mM MgCl2, 0.1% Tween-20, 5% glycerol, 0.1 mg/mL BSA, 2 mM DTT; 25 C; 0.0125-409.6 nM protein
Details: tags: N-His6-TEV cleaved; C-SNAP kept, Cy3B-labelled; label: tethered on chip by stalled RNA polymerase

| Binder | Kd [nM] |
| --- | --- |
| UCUCUUUGUAUUUAAUCUCUU (ssRNA) [Ic_S1_P4E.1_K4.1_C4.1_H4.1_A4.1_[A6T]_F4.1_[T8A]_T4.1] | 66.5 |
| B1 | 175 |
| B2 | 211 |
| B3 | 76.1 |
| B4 | 51.4 |
| B5 | 258 |
| B6 | 202 |
| B7 | 44.5 |
| B8 | 65 |
| B9 | 3.34 |
| B10 | 78.7 |
| UCUCUUUGUAUACGAUCUCUU (ssRNA) [Ic_S1_P4E.1_K4.1_C4.1_H4.1_A4.1_[T7C]_F4.1_[T8G]_T4.1] | 42.1 |
| B11 | > 2300 |
| B12 | 1940 |
| B13 | 624 |
| B14 | 292 |
| B15 | 995 |
| B16 | 261 |
| B17 | 558 |
| B18 | 28.5 |
| B19 | 108 |
| B20 | 243 |
| UCUCUUUGUAUAGCAUCUCUU (ssRNA) [Ib_S1_P4E.1_K4.1_C4.1_H4.1_A4.1_[T7G]_F4.1_[T8C]_T4.1] | 26.2 |
| B21 | 180 |
| B22 | 36.4 |
| B23 | 74.2 |
| B24 | 186 |
| B25 | 85 |
| B26 | 70.5 |
